The target of assay [1] is human IgG3 purified from human plasma (human) (UniProt P01860). Put plainly: cell-based or functional assay.
Assay [2] has the same target. Put plainly: SPR (BIAcore), IgG3 immobilized, EndoS(E235Q) injected, deglycosylated IgG flow cell as reference.

Chain of UniProt P01860 (P01860 whole entry, form in doubt): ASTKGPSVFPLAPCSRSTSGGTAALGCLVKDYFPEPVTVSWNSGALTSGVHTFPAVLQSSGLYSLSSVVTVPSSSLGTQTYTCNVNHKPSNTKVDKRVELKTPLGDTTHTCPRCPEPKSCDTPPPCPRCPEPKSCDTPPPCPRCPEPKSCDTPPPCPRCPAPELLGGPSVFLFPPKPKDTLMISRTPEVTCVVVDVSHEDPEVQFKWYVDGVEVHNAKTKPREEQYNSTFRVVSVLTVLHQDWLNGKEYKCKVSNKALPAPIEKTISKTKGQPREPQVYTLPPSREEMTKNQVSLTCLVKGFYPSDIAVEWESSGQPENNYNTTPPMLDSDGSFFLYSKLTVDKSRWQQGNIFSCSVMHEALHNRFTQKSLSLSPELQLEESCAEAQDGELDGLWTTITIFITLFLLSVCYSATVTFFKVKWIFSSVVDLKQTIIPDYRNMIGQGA

“EndoS (Endoglycosidase S) from S. pyogenes AP1, recombinant, without GST (from UniProt Q99Y92 37-995) (enzyme)” displayed an SDS-PAGE migration of IgG after incubation with EndoS; LCA lectin blot in assay [1] of 3 kDa.

Consider “EndoS(E235Q), modified EndoS polypeptide lacking IgG endoglycosidase activity (from UniProt Q99Y92 37-995) (enzyme)”, for which, in assay [2], the dissociation constant Kd turned out to be 83 nM, the off-rate constant (koff) worked out at 0.0089 s⁻¹ and the association rate constant (kon) came to 107000 M⁻¹ s⁻¹.
